Measured values published in article PMC2894451 (The Journal of Cell Biology, 2010).
Non-standard residues stand in square brackets, D forms with d. No end group written: not given here. pS = N[C@@H](COP(=O)(O)O)C(=O)O; MBP = not defined here

Target: T1, GST-CHC 331–542 fragment (UniProt Q00610 331-542)
T1 sequence: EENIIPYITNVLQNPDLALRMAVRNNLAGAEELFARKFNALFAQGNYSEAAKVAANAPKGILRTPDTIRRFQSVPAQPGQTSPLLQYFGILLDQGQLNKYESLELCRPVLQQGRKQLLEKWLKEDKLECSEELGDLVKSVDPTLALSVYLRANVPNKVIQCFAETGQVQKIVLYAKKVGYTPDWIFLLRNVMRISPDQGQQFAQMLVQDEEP
Test: pull-down

B1: MBP-TACC3 522–577, phosphorylated by aurora A (domain or fragment)
chain: {MBP}-EESFRDPAEVLGTGAEVDYLEQFGTSSFKESALRKQ[pS]LYLKFDPLLRDSPGRPVPV
modifications: reading uncertain
Q: Does B1 bind?
A: binds
